The source of these data is the RNAGym collection of RNA variant scans (doi:10.1073/pnas.2313332121).

Fewer inactive variants are shown than the library holds. Where only a bound is given, the exact number is not on record here.

First the molecules themselves.
B1: TPR 5TU (parent)
chain: GGAUCUUCUCGAUCUAACAAAAAAGACAAAUCUGCCACAAAGCUUGAGAGCAUCUUCGGAUGCAGAGGCGGCAGCCUUCGGUGGCGCGAUAGCGCCAACGUUCUCAACUAUGACACGCAAAACGCGUGCUCCGUUGAAUGGAGUUUAUCAUG

The variants in the series derive from B1. The series is described as follows: polymerase ribozyme fitness, log enrichment relative to wild type (log ratio); higher = more active; in vitro selection for triplet polymerase activity. An outline of the steps: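 Fitness measures genotype enrichment against wild-type enrichment on a logarithmic scale, with inverse-variance-weighted averaging of replicates. The logarithm is base 2, and genotypes were kept only with ≥10 input reads and ≥1 read per output in Illumina sequencing. The sequenced libraries came from one triplicate in vitro selection round, including frozen incubation at −7 °C, of PCR-built, transcribed mutant libraries of each subunit of a heterodimeric triplet polymerase ribozyme.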
For the variant A3U U53A G84U A138G G152A, the “polymerase ribozyme fitness (log ratio)” value was not above -4.2.
The result for G25C C54A C76U G88A reads not above -4.2; that for C18G A19U A23C G67C G126A G143U U144C, not above -4.2; that for G62C C93U U135A, -3.41.
The result for A30C G48C A60G reads not above -4.2.
The result for U9G C96U reads -3.76; that for C18G G46A G74C U77A U135C, not above -4.2.
Consider A23G C57U, for which the “polymerase ribozyme fitness (log ratio)” value was -2.27.
The result for A39C G62U G70A A115G reads not above -4.2; that for U55G C72U G83U C96U, -1.11.
The same measure for C114A U144G: -3.71.
The same measure for A23C U31G C108G A115G: not above -4.2; for A52C G86A: -1.2.
As to A73G C114U, the “polymerase ribozyme fitness (log ratio)” value was -2.66.
Take A17G C38A U45A C69A C85U A142C C149U U151G: the “polymerase ribozyme fitness (log ratio)” value is not above -4.2.
The result for C14G U102A reads -4.05; that for U13A C32U G67C C85A C105U G140A, not above -4.2; that for G81A C95A, -0.0952.
As to U55G G86A U134A, the “polymerase ribozyme fitness (log ratio)” value was -3.62.
As to A60C A91U C118A, the “polymerase ribozyme fitness (log ratio)” value is not above -4.2.
As to G62C A106U C125U, the “polymerase ribozyme fitness (log ratio)” value is -3.86.
The same measure for U45A A52C G71A C99A G133U U145G: not above -4.2.
For C93G A142U, the “polymerase ribozyme fitness (log ratio)” value was -3.03.
C76U G84A U104G U151C: the “polymerase ribozyme fitness (log ratio)” value was not above -4.2.
In the case of G58A C75U C96G, the “polymerase ribozyme fitness (log ratio)” value came out at 0.314.
As for G50C C76U, the “polymerase ribozyme fitness (log ratio)” value was -1.88.
The same measure for U55C U78C G117U U135G U151G: not above -4.2.
The same measure for A40U A106G: 0.3; for U55C C63U C85G A107U A142U U145A: not above -4.2; for U6A U90G C95U U109G A137C: not above -4.2.
The result for C85U C116G reads -0.942; that for U13C A16G C18A C35A C87U, not above -4.2; that for C57G A120U U144A, -1.24.
Regarding G67C G92A C96U C118U, the “polymerase ribozyme fitness (log ratio)” value was not above -4.2.
The same measure for A3U A16C A60G C87A U102G C108G U127A U145G: not above -4.2.
For C43G U56G C96U U139G U148G, the “polymerase ribozyme fitness (log ratio)” value is not above -4.2.
The same measure for A3U A17C A89U C132U: -1.09; for G50C A119U: -3.92.
Turning to A22U U55A, the “polymerase ribozyme fitness (log ratio)” value was -0.43.
For A89U C103U A106C G117A, the “polymerase ribozyme fitness (log ratio)” value was -2.14.
For the variant C10U A21G A22G A40G C79A C85G A138U, the “polymerase ribozyme fitness (log ratio)” value is not above -4.2.
The same measure for C57A A60G C79G: -3.6; for G92C C105U: -0.217; for C103G U151A: not above -4.2.
Take A91U U145A: the “polymerase ribozyme fitness (log ratio)” value was -4.
The result for A47G G140A reads -3.51; that for C5G A17G A20U C57U A66U G86C A107G C108A, not above -4.2.
Consider A22G G70U C118U, for which the “polymerase ribozyme fitness (log ratio)” value was -3.77.
With C38A U56G C93G C95A, the “polymerase ribozyme fitness (log ratio)” value is not above -4.2.
The result for C87A A115C reads -4.1; that for A19U G46U A52U, not above -4.2.
The same measure for A41U U56A C85A: -2.38; for G42C U44A A49U A60C C79U C96U C125A A142G: not above -4.2.
The same measure for G84U A138U: not above -4.2; for U90C G94U G124A C125U: -4.
Take C93G A115G C131U: the “polymerase ribozyme fitness (log ratio)” value was -3.48.
Regarding C8A U144C, the “polymerase ribozyme fitness (log ratio)” value is -4.16.
Turning to G83U G128U, the “polymerase ribozyme fitness (log ratio)” value is -3.22.
The same measure for C36A C85U: -3.7.
The same measure for U56G G68C C85A C114A: not above -4.2.
As for G34U A40G C72U C96G, the “polymerase ribozyme fitness (log ratio)” value was not above -4.2.
Regarding U6G G50U C85U C116U, the “polymerase ribozyme fitness (log ratio)” value amounted to 0.202.
In the case of C38U G50A A52U G68U G80A A97G A137U, the “polymerase ribozyme fitness (log ratio)” value was not above -4.2.
Regarding U56C C57U A89U C95G A137C, the “polymerase ribozyme fitness (log ratio)” value is -4.07.
Take C85A G112U: the “polymerase ribozyme fitness (log ratio)” value is not above -4.2.
As for A22G C54U C85U C116G, the “polymerase ribozyme fitness (log ratio)” value was found to be 1.12.
In the case of G83U C87U A89C C123A C125U, the “polymerase ribozyme fitness (log ratio)” value was -1.33.
The same measure for A20G C35G C51A C85U C99U C129A U148A: not above -4.2; for G92C U104C: -1.35; for U53A A115G: -0.769.
In the case of C118A A121C U144C, the “polymerase ribozyme fitness (log ratio)” value was -0.821.
The result for C54U C76A reads -0.561.
The result for A52C A73U reads -3.14; that for U7A A29C C85U C87U G143C A150G, not above -4.2; that for G50A C85U C96U C105U G141A, -1.94.
With G50C G84A U104C A106C, the “polymerase ribozyme fitness (log ratio)” value was not above -4.2.
The result for C38U C93U A121G G124A U135G reads not above -4.2.
The result for U31G U55A A142U reads -1.54; that for A28U G84U, not above -4.2; that for U13G A41G C54G G81A C96G C118U, not above -4.2.
For the variant G59A A89U, the “polymerase ribozyme fitness (log ratio)” value is -0.162.
The same measure for A49U U82G: -0.129.
For the variant C85A U109G C118U, the “polymerase ribozyme fitness (log ratio)” value was -1.54.
